The values below are quoted from earlier work in patent publication US20230312927A1, “POLY(SARCOSINE) POLYMER EXCIPIENTS” (CALUSA BIO, LLC, priority 2021, published 2023).

The subject of this data set is anti-drug antibodies (ADAs). Particulars: share of anti-drug antibodies that are neutralizing; van Schie et al. Ann. Rheum. Dis. 2015.

Turning to adalimumab [Humira], the “ADAs shown to be neutralizing” value is 97%.

Regarding infliximab [Remicade], the “ADAs shown to be neutralizing” value is reported as 90%.
